Test results from US20250340661A1, “ANTI CD40 ANTIBODY, ANTIGEN BINDING FRAGMENT AND MEDICAL USE THEREOF” (Jiangsu Hengrui Pharmaceuticals Co., Ltd., priority 2021, published 2025).

Columns and labels:
CD40 = CD40 (Homo sapiens, UniProt P25942); assay: FACS binding of human-rabbit chimeric anti-CD40 antibodies to Raji cells
Method: Raji cells are of a tumor cell line that overexpresses human CD40. 2E5 Raji cells were inoculated onto a 96-well plate. 100 μL of a test antibody was added, with the highest final concentration of 100 nM. The antibody was 5-fold diluted to 8 concentrations. The plate was incubated at 4° C. for 1 h. The plate was washed once with wash buffer, and an AF647-conjugated anti-human IgG antibody (Jackson Immunoresearch Laborotories, Cat. #205-609-088) was added at a dilution ratio of 1:500. The plate was incubated at 4° C. for 30 min. The plate was washed once with wash buffer, and fluorescence intensity was measured using a flow cytometer. The binding EC50 values of the anti-CD40 antibodies for CD40 were calculated. The anti-CD40 antagonistic antibody CFZ533 (i.e., iscalimab, Nova) was used as a positive control, and the heavy and light chain variable region sequences were derived from sequence 5 and sequence 2 of U.S. Pat. No. 8,277,810B, respectively.

[1] = PK assay in human CD40 transgenic mice; type: in vivo, mouse; settings: hCD40 transgenic mice, 10 mg/kg intraperitoneal, plasma
Description: The plate was washed three times with wash buffer.

Sequence of CD40 (P25942 21-277): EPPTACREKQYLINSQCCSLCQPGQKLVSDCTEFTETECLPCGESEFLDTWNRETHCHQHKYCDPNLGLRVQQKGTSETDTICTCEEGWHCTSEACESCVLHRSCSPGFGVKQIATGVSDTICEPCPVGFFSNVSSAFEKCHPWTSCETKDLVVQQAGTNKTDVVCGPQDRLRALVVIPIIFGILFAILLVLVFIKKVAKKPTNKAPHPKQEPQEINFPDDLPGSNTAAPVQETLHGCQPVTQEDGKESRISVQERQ

With “CFZ533: anti-CD40 antagonistic antibody (iscalimab), positive control; variable regions from U.S. Pat. No. 8,277,810B [reference compound]” the EC50 (CD40) was 2.41 nM, the “AUC(0-d 14)” value [1] was 12655 (h)*(mg/L) and the Cmax [1] was 75.95 µg/mL. For the same substance, the T½ [1] was 214.8 h.
